± gives the uncertainty stated by the source.

The record followed here is the supplement of paper PMC7877785.

A short description of this data set: self-splicing fitness, log relative to wild type (ln ratio); higher = more splicing; Tetrahymena group I intron in knt gene, E. coli kanamycin selection, DiMSum; sequences stand for … in CUCUCU…GGAGGGAAAAGUUAUCAGGCAUGCACCUGGUAGCUAGUCUUUAAACCAAUAGAUUGCAUCGGUUUAAAAGGCAAGACCGUCAAAUUGCGGGAAAGGGGUCAACAGCCGUUCAGUACCAAGUCUCAGGGGAAACUUUGAGAUGGCCUUGCAAAGGGUAUGGUAAUAAGCUGACGGACAUGGUCCUAACCACGCAGCCAAGUCCUAAGUCAACAGAUCUUCUGUUGAUAUGGAUGCAGUUCACAGACUAAAUGUCGGUCGGGGAAGAUGUAUUCUUCUCAUAAGAUAUAGUCGGACCUCUCCUUAAUGGGAGCUAGCGGAUGAAGUGAUGCAACACUGGAGCCGCUGGGAACUAAUUUGUAUGCGAAAGUAUAUUGAUUAGUUUUGGAGUACUCGUGGUCG
Put shortly: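 Colonies from six replicate transformations of E. coli BL21(DE3) were pooled and amplicon-sequenced on an Illumina HiSeq 2500. The library placed an intron with all eight P1ex-region nucleotides randomised inside the knt kanamycin-resistance gene on pET-22b(+), and cells grew overnight at 37°C or 30°C on LB agar with or without 25 μg/mL kanamycin (plus 100 μg/mL carbenicillin, 50 μM IPTG, 0.2% rhamnose). Fitness is the DiMSum error-weighted combination of wild-type-normalised replicate fold changes, kanamycin versus none.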

For GUACAGCAAUAUUACGUACU, the “self-splicing fitness (ln)” value was -2.77 ± 0.14 (30 °C) and -2.79 ± 0.25 (37 °C).

CAAAAGCAAUAUUACGUAUU: the “self-splicing fitness (ln)” value runs as follows: (30 °C) -4.13 ± 0.18; (37 °C) -2.78 ± 0.15.

Consider GAAUAGCAAUAUUACGUUUA, for which the “self-splicing fitness (ln)” value (30 °C) is -1.79 ± 0.15 and the “self-splicing fitness (ln)” value (37 °C) is -1.01 ± 0.15.

As to AAAAAGCAAUAUUACGCCUU, the “self-splicing fitness (ln)” value by setting is: (30 °C) -0.374 ± 0.071; (37 °C) 0.151 ± 0.1.

As to AAACAGCAAUAUUACGCUUG, the “self-splicing fitness (ln)” value by setting is: (30 °C) -1.9 ± 0.096; (37 °C) -0.605 ± 0.098.

For CUGAAGCAAUAUUACGACCG, the “self-splicing fitness (ln)” value is, setting by setting: (30 °C) 0.3 ± 0.15; (37 °C) 0.854 ± 0.17.

For the sequence UGAAAGCAAUAUUACGAUAA, the “self-splicing fitness (ln)” value (30 °C) was -0.879 ± 0.11 and the “self-splicing fitness (ln)” value (37 °C) was -0.129 ± 0.13.

In the case of GGAGAGCAAUAUUACGAACA, the “self-splicing fitness (ln)” value (37 °C) was -1.93 ± 0.22.

For the sequence ACGCAGCAAUAUUACGUCCC, the “self-splicing fitness (ln)” value (37 °C) is -0.268 ± 0.48.

In the case of UAGGAGCAAUAUUACGAAUA, where the note is “30 °C”, the “self-splicing fitness (ln)” value was -1.13 ± 0.41.

Take UGUUAGCAAUAUUACGGGGA: the “self-splicing fitness (ln)” value is -2.84 ± 0.22 (30 °C) and -2.2 ± 0.19 (37 °C).

On to GCGGAGCAAUAUUACGGUAA, for which the “self-splicing fitness (ln)” value was -3.29 ± 0.26 (30 °C) and -2.7 ± 0.31 (37 °C).

Take AUAAAGCAAUAUUACGAAGC: the “self-splicing fitness (ln)” value (30 °C) was -4.43 ± 0.46 and the “self-splicing fitness (ln)” value (37 °C) is -0.791 ± 0.29.

With GAAGAGCAAUAUUACGUUUU, the “self-splicing fitness (ln)” value is, setting by setting: (30 °C) -4.09 ± 0.23; (37 °C) -2.38 ± 0.21.

Take CUUAAGCAAUAUUACGUGCU: the “self-splicing fitness (ln)” value reads like this: (30 °C) -2.16 ± 0.24; (37 °C) -2.1 ± 0.18.

With AUACAGCAAUAUUACGCGCU, the “self-splicing fitness (ln)” value (30 °C) was -0.631 ± 0.094 and the “self-splicing fitness (ln)” value (37 °C) turned out to be 0.0173 ± 0.12.

As to GCAUAGCAAUAUUACGGUUU, the “self-splicing fitness (ln)” value (30 °C) was -1.62 ± 0.08 and the “self-splicing fitness (ln)” value (37 °C) was -0.625 ± 0.085.

Consider UCAUAGCAAUAUUACGUAAC, for which the “self-splicing fitness (ln)” value by setting is: (30 °C) -3.57 ± 0.37; (37 °C) -1.6 ± 0.31.

On to CCAUAGCAAUAUUACGUUCG, for which the “self-splicing fitness (ln)” value is -0.579 ± 0.08 (30 °C) and -0.674 ± 0.1 (37 °C).

UAAGAGCAAUAUUACGGAUC: the “self-splicing fitness (ln)” value (30 °C) was -3.68 ± 0.46 and the “self-splicing fitness (ln)” value (37 °C) was -1.64 ± 0.31.

Turning to CGCAAGCAAUAUUACGAGCU, the “self-splicing fitness (ln)” value runs as follows: (30 °C) -0.541 ± 0.063; (37 °C) -0.633 ± 0.078.

Regarding GACGAGCAAUAUUACGCUCG, the “self-splicing fitness (ln)” value (30 °C) is -1.59 ± 0.35 and the “self-splicing fitness (ln)” value (37 °C) was -1.6 ± 0.33.

Consider AACCAGCAAUAUUACGGUGG, for which the “self-splicing fitness (ln)” value (30 °C) is -2.33 ± 0.086 and the “self-splicing fitness (ln)” value (37 °C) is -1.44 ± 0.1.

Take AAUGAGCAAUAUUACGGGAG: the “self-splicing fitness (ln)” value by setting is: (30 °C) -2.87 ± 0.23; (37 °C) -3.53 ± 0.42.

As for GUUCAGCAAUAUUACGCCCG, the “self-splicing fitness (ln)” value is, setting by setting: (30 °C) -1.59 ± 0.22; (37 °C) -0.196 ± 0.28.

Take AGGUAGCAAUAUUACGCGUU: the “self-splicing fitness (ln)” value by setting is: (30 °C) -1.888 ± 0.015; (37 °C) -0.903 ± 0.033.

For CUUGAGCAAUAUUACGAGUG, the “self-splicing fitness (ln)” value (30 °C) was -1.72 ± 0.081 and the “self-splicing fitness (ln)” value (37 °C) was -0.765 ± 0.093.

Turning to GGCCAGCAAUAUUACGUUCC, the “self-splicing fitness (ln)” value reads like this: (30 °C) -1.28 ± 0.14; (37 °C) 0.125 ± 0.18.

For GAACAGCAAUAUUACGAGCA, the “self-splicing fitness (ln)” value by setting is: (30 °C) -1.01 ± 0.1; (37 °C) -0.521 ± 0.1.

On to AGACAGCAAUAUUACGAAGA, for which the “self-splicing fitness (ln)” value runs as follows: (30 °C) -3.75 ± 0.33; (37 °C) -2.41 ± 0.34.

As to ACAAAGCAAUAUUACGCGAC, the “self-splicing fitness (ln)” value (30 °C) is -2.02 ± 0.11 and the “self-splicing fitness (ln)” value (37 °C) is -1.16 ± 0.12.

With CAGCAGCAAUAUUACGCCUA, the “self-splicing fitness (ln)” value (30 °C) is -0.345 ± 0.076 and the “self-splicing fitness (ln)” value (37 °C) was 0.522 ± 0.094.

For UGCAAGCAAUAUUACGACGG, the “self-splicing fitness (ln)” value by setting is: (30 °C) -0.954 ± 0.074; (37 °C) -0.946 ± 0.079.

Consider CUCCAGCAAUAUUACGCGUU, for which the “self-splicing fitness (ln)” value is -3.65 ± 0.17 (30 °C) and -2.01 ± 0.14 (37 °C).

Consider CAGGAGCAAUAUUACGGACU, for which the “self-splicing fitness (ln)” value by setting is: (30 °C) -1.86 ± 0.14; (37 °C) -1.75 ± 0.3.

As to UGUCAGCAAUAUUACGCGGU, the “self-splicing fitness (ln)” value (30 °C) is -3.09 ± 0.26 and the “self-splicing fitness (ln)” value (37 °C) was -2.2 ± 0.29.

Turning to UUCAAGCAAUAUUACGGUUG, the “self-splicing fitness (ln)” value (30 °C) is -2.96 ± 0.14 and the “self-splicing fitness (ln)” value (37 °C) was -2.41 ± 0.18.

With AACUAGCAAUAUUACGUUAA, the “self-splicing fitness (ln)” value by setting is: (30 °C) -2.93 ± 0.24; (37 °C) -1.71 ± 0.23.

With CCAGAGCAAUAUUACGCCGU, under “30 °C”, the “self-splicing fitness (ln)” value was -4.04 ± 0.48.
